From paper PMC4705668

Target: 111p (modern human L1Pa1 ORF1p) (Homo sapiens, UniProt Q9UN81 1-338)
Assay: filter binding; 0.05 M NaCl, 37 C; the three proteins indistinguishable; Filter binding: 20 mM Tris, 10% glycerol, 0.5 mM MgCl2, 0.1 mM DTT, 100 ug/ml BSA, 0.05 M NaCl, 37 C 1 h, 0.1 nM DNA; cross-linking: 20 mM Hepes pH 7.5, 10% gly

Sequence of 111p (modern human L1Pa1 ORF1p) (Q9UN81 whole entry): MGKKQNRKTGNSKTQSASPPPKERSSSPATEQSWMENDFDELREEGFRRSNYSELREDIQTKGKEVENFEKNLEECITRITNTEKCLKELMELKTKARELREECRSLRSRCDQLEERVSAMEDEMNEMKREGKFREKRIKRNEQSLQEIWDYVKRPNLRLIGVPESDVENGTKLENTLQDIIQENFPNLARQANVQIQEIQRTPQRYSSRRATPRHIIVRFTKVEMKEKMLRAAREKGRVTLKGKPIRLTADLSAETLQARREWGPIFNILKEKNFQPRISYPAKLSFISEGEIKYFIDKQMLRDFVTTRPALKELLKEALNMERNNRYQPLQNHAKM

B1: mismatched duplex d29 / d29_c-mm (dsDNA)
DNA 1: AAAAAGTACACAGTCTAACATCAACTCGC
DNA 2: GCGAGTTGACGTCAGACCGTGCACTTTTT
B1: binds.
